In US20260265717A1:

T1: MG64-1 Cas12k expressed with an N-terminal Twin Strep tag and an HRV3C protease site and a C-terminal 2xNLS tag
T1 sequence: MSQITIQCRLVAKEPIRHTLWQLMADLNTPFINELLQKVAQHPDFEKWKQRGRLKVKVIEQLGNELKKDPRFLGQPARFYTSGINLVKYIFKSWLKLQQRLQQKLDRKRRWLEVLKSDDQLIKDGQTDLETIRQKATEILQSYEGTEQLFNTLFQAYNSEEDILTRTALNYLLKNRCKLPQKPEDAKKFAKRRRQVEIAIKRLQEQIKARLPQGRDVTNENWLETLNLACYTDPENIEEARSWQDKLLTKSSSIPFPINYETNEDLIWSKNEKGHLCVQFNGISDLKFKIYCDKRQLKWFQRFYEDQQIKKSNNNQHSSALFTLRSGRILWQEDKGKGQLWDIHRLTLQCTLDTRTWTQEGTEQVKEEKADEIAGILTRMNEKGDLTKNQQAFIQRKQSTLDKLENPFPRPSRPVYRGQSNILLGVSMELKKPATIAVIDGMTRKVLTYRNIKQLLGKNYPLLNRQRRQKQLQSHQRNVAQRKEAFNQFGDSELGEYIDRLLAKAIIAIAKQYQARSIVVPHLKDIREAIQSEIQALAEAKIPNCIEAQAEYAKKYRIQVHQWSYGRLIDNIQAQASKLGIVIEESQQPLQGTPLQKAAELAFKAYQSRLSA


Molecular target: T1, MG64-1 Cas12k expressed with an N-terminal Twin Strep tag and an HRV3C protease site and a C-terminal 2xNLS tag
Experiment: mass spectrometry of tryptic peptides from SEC-eluted Cas12k Strep pulldown complex; emPAI is a relative measure of abundance

emPAI | Binder
1.61 | MG64-1 TniQ (protein) MESREIQPWWFLVEPLAGESISHFLGRFRRENELTVTMMGKITGLGGTITRWEKFRFIPIPTEEELTALSEVVQVEVERLWQMFPPKGVGMKHQPIRLCGACYEEERCHKIEWQLKTTQFCSQHGLTLLSECPNCGARFQFPALWVNGWCHRCFLTFGEMVEGQSNKKKYL
2.43 | MG64-1 TnsC (protein) MTIQEAQAVAKQLGDIQLTSEKLQAEIQRLNRKTVVTLSHVEALHNWLEGKRQAKQSCRVVGESRTGKTIACNAYRLRHKPIQTPGKPPIVPVVYIQVTQECGAKDLFGAIIEHLKYQMTKGTVAEIRQRTFKVLQRCGVEMLIIDEADRLKPKTFAEVRDIFDKLNIAVVLVGTDRLDAVIKRDEQVYNRFRACHRFGKLAGDEFSQTVNIWERQVLKLPVASNLSSKRMLKILGQATGGYLGLLDMILRESAIRALKKGLQKIDLDTLKEVTEEYR
